This sample holds only a part of the variants without activity.
Assays:
biotinyl-Met-oxazolone = assay: self-aminoacylation, catalytic enhancement (BMO) (fold over background); higher = more active; k-Seq, kA / k0A0; sequences stand for … in GGGAAUGGAUCCACAUCUACGAAUUC…UUCACUGCAGACUUGACGAAGCUG
Procedure, shortened: (§1)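 Mutagenized RNA pools with a 21-nt variable region (0.43 μM) reacted with each biotinyl-aminoacyl-oxazolone at 2–1250 μM. Reactions ran in 50 μL HEPES/NaCl/KCl/MgCl2/CaCl2 buffer with 5% acetonitrile, pH 6.9–7.0, for 90 minutes at room temperature. Streptavidin-captured RNA was quantified by triplicate qPCR and Illumina sequencing, and per-sequence fraction reacted was fit to a pseudo-first-order model with 1000 bootstraps. Catalytic enhancement is median kA divided by the uncatalyzed rate, the low-activity peak of a bimodal Gaussian fit.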

biotinyl-Val-oxazolone = assay: self-aminoacylation, catalytic enhancement (BVO) (fold over background); higher = more active; k-Seq, kA / k0A0; sequences stand for … in GGGAAUGGAUCCACAUCUACGAAUUC…UUCACUGCAGACUUGACGAAGCUG
Procedure, shortened: as §1

biotinyl-Ile-oxazolone = assay: self-aminoacylation, catalytic enhancement (BIO) (fold over background); higher = more active; k-Seq, kA / k0A0; sequences stand for … in GGGAAUGGAUCCACAUCUACGAAUUC…UUCACUGCAGACUUGACGAAGCUG
Procedure, shortened: as §1

biotinyl-Leu-oxazolone = assay: self-aminoacylation, catalytic enhancement (BLO) (fold over background); higher = more active; k-Seq, kA / k0A0; sequences stand for … in GGGAAUGGAUCCACAUCUACGAAUUC…UUCACUGCAGACUUGACGAAGCUG
Procedure, shortened: as §1

biotinyl-Trp-oxazolone = assay: self-aminoacylation, catalytic enhancement (BWO) (fold over background); higher = more active; k-Seq, kA / k0A0; sequences stand for … in GGGAAUGGAUCCACAUCUACGAAUUC…UUCACUGCAGACUUGACGAAGCUG
Procedure, shortened: as §1

biotinyl-Phe-oxazolone = assay: self-aminoacylation, catalytic enhancement (BFO) (fold over background); higher = more active; k-Seq, kA / k0A0; sequences stand for … in GGGAAUGGAUCCACAUCUACGAAUUC…UUCACUGCAGACUUGACGAAGCUG
Procedure, shortened: as §1

| Sequence | self-aminoacylation (biotinyl-Met-oxazolone) | self-aminoacylation (biotinyl-Val-oxazolone) | self-aminoacylation (biotinyl-Ile-oxazolone) | self-aminoacylation (biotinyl-Leu-oxazolone) | self-aminoacylation (biotinyl-Trp-oxazolone) | self-aminoacylation (biotinyl-Phe-oxazolone) |
| --- | --- | --- | --- | --- | --- | --- |
| AUUACACUGGUCAACGAGUGA [Fam2.1 aminoacylation ribozyme variant] | 5.3 | 2.79 | 2.78 | 5.07 | 7.54 | 22.6 |
| CUACUUCAAACAGUGGGUCUG [Fam1A.1 aminoacylation ribozyme variant] | 0.764 | 0.823 | 0.995 | 0.935 | 0.989 | 0.834 |
| AUUCACAUAGGUCAUCGGGUU [Fam2.2 aminoacylation ribozyme variant] | 2.13 | 1.76 | 1.9 | 2.22 | 1.97 | 8.48 |
| AUUACCCUGUUCAUCGAAUGA [Fam2.1 aminoacylation ribozyme variant] | 1.16 | 1.13 | 0.982 | 0.871 | 0.767 | 1.18 |
| CCACACUUCAAGCAUUCGGGC [Fam1B.1 aminoacylation ribozyme variant] | 2.37 | 2.83 | 2.54 | 1.79 | 2.99 | 1.51 |
| CCACACUUCAAGCGAUCGGCC [Fam1B.1 aminoacylation ribozyme variant] | 4.7 | 5.25 | 3.31 | 2.6 | 7.01 | 20.2 |
| AUUCAGCUAGGUCAUCGGCUG [Fam2.2 aminoacylation ribozyme variant] | 1.55 | 1.86 | 1.63 | 1.52 | 2.02 | 11.6 |
| AAGGUUGCUAAUAGCCGCAAG [Fam3.1 aminoacylation ribozyme variant] | 1.06 | 1.28 | 1.57 | 1.31 | 1.41 | 1.49 |
| AAGUUCGCUAAUAGUCGCGAG [Fam3.1 aminoacylation ribozyme variant] | 2.09 | 2.51 | 3.31 | 2.18 | 4 | 15.2 |
| CCACACUUCAAGCAAUUGGGC [Fam1B.1 aminoacylation ribozyme variant] | 2.12 | 1.98 | 1.79 | 2.16 | 2.98 | 1 |
| CCACGCUUCAAUCAAUCGGUC [Fam1B.1 aminoacylation ribozyme variant] | 0.865 | 1.18 | 1.01 | 1.34 | 20 | 30.8 |
| AUUACUCUGGUCAUAGAGUGA [Fam2.1 aminoacylation ribozyme variant] | 4.99 | 2.79 | 3.03 | 5.04 | 6.05 | 20.8 |
| CUACCUCAAACAAUCGGUCAG [Fam1A.1 aminoacylation ribozyme variant] | 1.01 | 0.873 | 0.808 | 1.01 | 0.767 | 1.33 |
| AAGUUUGCUAAUUGCCGCAAG [Fam3.1 aminoacylation ribozyme variant] | 1.47 | 1.44 | 1.87 | 1.35 | 2.73 | 1.02 |
| CCACACUUAAAGCAAUCGGUU [Fam1B.1 aminoacylation ribozyme variant] | 0.896 | 1.15 | 1.08 | 0.849 | 0.916 | 0.794 |
| AUUACCCUGGCCAUUGAGUGA [Fam2.1 aminoacylation ribozyme variant] | 3.72 | 2.41 | 2.13 | 4.53 | 4.73 | 4.63 |
| ACGUUUGCUAAUAGUCGUAAG [Fam3.1 aminoacylation ribozyme variant] | 1.27 | 1.1 | 1.14 | 1.04 | 4.64 | 15.7 |
| AUCACCCUGGUCAUUGAGUGA [Fam2.1 aminoacylation ribozyme variant] | 11.3 | 5.8 | 5.63 | 13 | 12.9 | 75.1 |
| CCACACUUCAUGCCAUCGGUC [Fam1B.1 aminoacylation ribozyme variant] | 0.691 | 1.1 | 0.957 | 0.921 | 1.59 | 0.488 |
| AUUACCCAGGGCAUCGAGUGA [Fam2.1 aminoacylation ribozyme variant] | 6.06 | 3.57 | 3.27 | 6.33 | 6.92 | 21.4 |
| AUUCACCUAGGUCAUGGGCUG [Fam2.2 aminoacylation ribozyme variant] | 1.54 | 1.33 | 1.63 | 1.66 | 1.17 | 0.402 |
| CCACACUUCAGGCAAUCGGUG [Fam1B.1 aminoacylation ribozyme variant] | 5.39 | 3.41 | 3.23 | 7.5 | 4.89 | 36.7 |
| CUAAUUCAAACAAUCUGUCUG [Fam1A.1 aminoacylation ribozyme variant] | 0.64 | 0.665 | 0.784 | 0.525 | 0.748 | 1.1 |
